From patent US20080160006A1, “Nutrient Medium for Maintaining Neural Cells in Injured Nervous System” (priority 2001, published 2008) come the findings set out here.

The subject of the experiment is human cortical brain cells (neurons vs glia). Put plainly: Adult human cortical brain cells cultured in B27/Neurobasal A, immunostained for neurofilament and GFAP. It is filed as cell-based. The settings on record: added in addition to FGF2, sample 4. An excerpt:
GENERAL METHODS. Brain tissue was ethically obtained by informed consent from patients before surgery under protocols approved by the Springfield Committee for Research on Human Subjects and the UC Irvine IRB. […] Rather than using aspiration to remove all tissue, slices of tissue 1-3 mm thick were obtained from cortical access ports or tissue that was marginal to the lesion. Use of electrocautery was kept to a minimum to reduce oxyradicals and other neuron damage. […] Hibernate A contains D-glucose, pyruvate, balanced salts, amino acids, and vitamins. B27 contains 5 antioxidants and 15 other components. […] After transport on ice to a laminar flow sterile hood in the culture laboratory, meninges and white matter were removed from the tissue with a scalpel and forceps in a 35 mm dish in 2 ml transport medium. […] The cell suspension was enriched for neurons by centrifugation on a density gradient of Optiprep (Invitrogen). […] The diluted Optiprep was further diluted with transport medium (v/v) to make a gradient containing 4 steps of 1 ml in a 15 ml centrifuge tube: bottom (0.35:0.65), 0.25:0.75, 0.2:0.8, top (0.15:0.85). Up to 6 ml of cell suspension was layered over the Optiprep step gradient. […] Cells were plated at a density of 320/mm^2 onto glass coverslips coated with polylysine as previously described. […]

B1: NT3: trophic factor NT3, recombinant, Regeneron (protein, UniProt P20783 139-257, looked up)
Neurotrophin-3: YAEHKSHRGEYSVCDSESLWVTDKSSAIDIRGHQVTVLGEIKTGNSPVKQYFYETRCKEARPVKNGCRGIDDKHWNSQCKTSQTYVRALTSENNKLVGWRWIRIDTSCVCALSRKIGRT
With B1, the “survival of neurofilament positive cells versus FGF2 alone” value is “no more efficacious”.
